US20210261636A1, “NEOANTIGENS EXPRESSED IN MULTIPLE MYELOMA AND THEIR USES” (Janssen Biotech, Inc., priority 2020, published 2021)

B1: VYPVYQPVVSQAGLGELWQWASGKLRGYCWRRGQWHAYSIQCDPHPVFGEGACDCSETEAHGGCQSPRLESFPGQPPGFRGQRF (peptide)
chain: VYPVYQPVVSQAGLGELWQWASGKLRGYCWRRGQWHAYSIQCDPHPVFGEGACDCSETEAHGGCQSPRLESFPGQPPGFRGQRF
notes: gene fusion NDUFB8-> SEC31B
B2: EIEGSCHGGMITMDIKMGSYSCDYLKHSETLSAMVVSCGISFLFLFPRKKIAKLIFKEQVP (peptide)
chain: EIEGSCHGGMITMDIKMGSYSCDYLKHSETLSAMVVSCGISFLFLFPRKKIAKLIFKEQVP
notes: alternative splicing, EPHA6
B3: RQREVVDLVKKDLVMRAVSLGTQRGDQNGRPSWSGHAIWARIMECAYKGQQECLVETGALGPMAFRVHLGSQVGMDSKEKRGNV (peptide)
chain: RQREVVDLVKKDLVMRAVSLGTQRGDQNGRPSWSGHAIWARIMECAYKGQQECLVETGALGPMAFRVHLGSQVGMDSKEKRGNV
notes: alternative splicing, CTHRC1
B4: YESPIFSRDRVNPGALSGSLGQARAACWRTLGSLKPGGEFRAAEQRRAGWVPGAPGFTCSLISSRFPRERFCLRHRSSWRGARRVQCVCPGQTEGLWL (peptide)
chain: YESPIFSRDRVNPGALSGSLGQARAACWRTLGSLKPGGEFRAAEQRRAGWVPGAPGFTCSLISSRFPRERFCLRHRSSWRGARRVQCVCPGQTEGLWL
notes: alternative splicing, WNT10A
B5: SLLIGALRITWKREAGRKSFFKCGLRVHMWKGLQFIEITRRNWMLIFQSCSLFGTSQYRSLTKKCQLCFRFKRVSSKGSDITDKREVTH (peptide)
chain: SLLIGALRITWKREAGRKSFFKCGLRVHMWKGLQFIEITRRNWMLIFQSCSLFGTSQYRSLTKKCQLCFRFKRVSSKGSDITDKREVTH
notes: alternative splicing, ARHGAP42
B6: MSATTGSQDNPEGKRDPSRKFQEQKALPKRPPLQKNLRNGVGQHYPATLTSRTRNSIKMRHSRTTRARRPPPSPVLPWAASNSQARPETSSLSEKSPEV (peptide)
chain: MSATTGSQDNPEGKRDPSRKFQEQKALPKRPPLQKNLRNGVGQHYPATLTSRTRNSIKMRHSRTTRARRPPPSPVLPWAASNSQARPETSSLSEKSPEV
notes: alternative splicing, CSAG1
B7: GWKICREGIGPVMLTMTSGEWSFSFLEAICGVSREPVPRRRHCIWDTRGGVGLCEASCWRPTSEVG (peptide)
chain: GWKICREGIGPVMLTMTSGEWSFSFLEAICGVSREPVPRRRHCIWDTRGGVGLCEASCWRPTSEVG
notes: alternative splicing, STARD5

Legend:
CD4+ T cells = experiment: Exogenous autologous healthy donor restimulation assay, TNFα and IFNγ production by CD4+ T cells; assay type: cell-based, human; parameters: Frequency (TNFα+ IFNγ+ CD4 T cells): unit not given here; conditions: donor independent, peptide pool 10 μg/mL, healthy donors; for Fold change (CD4+) vs. DMSO: maximum CD4+ T-cell response (TNFα and IFNγ); for Frequency (TNFα+ IFNγ+ CD4 T cells): maximum CD4+ T-cell response
In short: (§1)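 CD1c+ DCs from healthy donor PBMCs pulsed 2 h with 15-mer overlapping neoantigen peptide pools (10 μg/mL), irradiated 50 Gy, then co-cultured 12 days with autologous CD3+ T cells plus IL-15/IL-2. Restimulated day 11 with same pools, overnight with protein inhibitor; intracellular TNFα/IFNγ by flow. Positive: ≥3-fold over DMSO and ≥0.01% double-positive.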

CD8+ T cells = experiment: Exogenous autologous healthy donor restimulation assay, TNFα and IFNγ production by CD8+ T cells; assay type: cell-based, human; parameters: Frequency (TNFα+ IFNγ+ CD8 T cells): unit not given here; conditions: for Fold change (CD8+) vs. DMSO: maximum CD8+ T-cell response (TNFα and IFNγ); for Fold change (CD8+) vs. DMSO / Frequency (TNFα+ IFNγ+ CD8 T cells): donor independent, peptide pool 10 μg/mL, healthy donors; for Frequency (TNFα+ IFNγ+ CD8 T cells): maximum CD8+ T-cell response; for Immunogenic (yes/no): positive if CD8+ and/or CD4+ double positive TNFα/IFNγ frequency >=3-fold over DMSO and at least 0.01%
In short: as §1

| Molecule | Fold change (CD4+) vs. DMSO (CD4+ T cells) | Frequency (TNFα+ IFNγ+ CD4 T cells) (CD4+ T cells) | Fold change (CD8+) vs. DMSO (CD8+ T cells) | Frequency (TNFα+ IFNγ+ CD8 T cells) (CD8+ T cells) | Immunogenic (yes/no) (CD8+ T cells) |
| --- | --- | --- | --- | --- | --- |
| B1 | 1.94 | 0.011 | 42.81 | 0.064 | Yes |
| B2 | 111.44 | 0.57 | 100 | 17 | Yes |
| B3 | 223.78 | 0.16 | 288.14 | 0.51 | Yes |
| B4 | 12.303 | 0.071 | 38.74 | 0.095 | Yes |
| B5 | 15.34 | 0.1 | 1100 | 0.29 | Yes |
| B6 | 79.18 | 0.12 | 6327.68 | 11.2 | Yes |
| B7 | 44.35 | 0.081 | 874.02 | 7.77 | Yes |
